{
  "source": "patent US20110243959A1",
  "about": "“MODULATING NEURONAL PLASTICITY AND TREATMENT OF NEURONAL LOSS BY MODULATIONG WNT7A OR WNT7B MODULATION” (priority 2008, published 2011)",
  "molecules": {"B1": {"name": "sFRP-1: Mature recombinant secreted frizzled-related protein 1 from R&D systems, used as local inhibitor of Wnt signaling (protein, UniProt Q8N474 32-314, looked up)", "Secreted frizzled-related …": "SEYDYVSFQSDIGPYQSGRFYTKPPQCVDIPADLRLCHNVGYKKMVLPNLLEHETMAEVKQQASSWVPLLNKNCHAGTQVFLCSLFAPVCLDRPIYPCRWLCEAVRDSCEPVMQFFGFYWPEMLKCDKFPEGDVCIAMTPPNATEASKPQGTTVCPPCDNELKSEAIIEHLCASEFALRMKIKEVKKENGDKKIVPKKKKPLKLGPIKKKDLKKLVLYLKNGADCPCHQLDNLSHHFLIMGRKVKSQYLLTAIHKWDKKNKEFKNFMKKMKNHECPTFQSVFK"}},
  "key": {"Wnt signaling [1]": {"tested_on": "Wnt signaling", "experiment": "Application to organotypic slice cultures", "format": "cell-based", "conditions": "organotypic slice cultures (not shown)", "description": "Organotypic slice cultures were based on the Stoppini method (Stoppini et al., 1991), as described (De Paola et al., 2003).\nImmunocytochemistry preparations were imaged on an LSM510 confocal microscope (Zeiss) using a 40× (1.4) oil-immersion objective. Imaging of organotypic slice cultures was as described. Briefly, images were acquired with an LSM 510 (Zeiss), using a 40× (1.4) oil objective (Zeiss); image sizes were 2048×2048, and stepsizes were 0.4 μm. Where indicated, drugs were replaced every 3-4 days, together with fresh medium.\n(§1) Microscope images were processed and analysed using Metamorph 6.1, Imaris 4.2 (Bitplane AG) and ImageJ softwares. We defined LMTs as mossy fiber terminal regions of >2.5 μm diameter in CA3a-c, which were arranged either en-passant, or as side structures connected to the mossy fiber axon or another LMT by an axonal process (satellite). For the quantification of LMT sizes in 3D (volumes) at least three confocal 3D stacks were acquired in CA3b for each preparation (three mice per condition), and analyzed using Imaris 4.2 software."}, "Wnt signaling [2]": {"tested_on": "Wnt signaling", "experiment": "Local application into CA3 in mice housed under control conditions", "format": "in vivo", "description": "(§2) For enriched environment (EE) experiments, male mice were housed in groups of 3-4 littermates in large (rat) cages equipped with 3 running wheels per cage, toys and hiding spaces. Control mice were male littermates (3-4), which were housed individually in small standard cages without special equipment. Unless stated otherwise, EE was started at 1 month of age, and lasted 20 days.\nMature recombinant sFRP-1 was obtained from R&D systems and dissolved in PBS/0.1% BSA (vehicle: PBS/0.1% BSA) to a working concentration of 50 μg/ml. Wnt agonist (Calbiochem) was dissolved in a small volume of DMSO and then further diluted with PBS to a final concentration of 10 mM (DMSO<1:1000). PBS/DMSO solution alone was used as vehicle for control injections. Antibodies were from the following sources: Bassoon, anti-mouse Alexa Fluor 546 and 647, anti-goat Alexa Fluor 546 and 633, donkey anti-goat Alexa Fluor 568 (Molecular Probes); NeuN anti-mouse (CHEMICON); anti-human Wnt7a/b antibody (R&D, P56706). […] Reagents, with their working concentrations were: TTX (Laxotan, 1 μM, stock in acetate buffer), Bicuculine (SIGMA, 20 μM in water), CGP (SIGMA, 0.4 μM in water), Picrotoxin (SIGMA, 20 μM in water).\nInjection canulas were implanted unilaterally (left hemisphere) above the CA3 b-a region of Isofluorane-anesthetized mice using stereotactical guidance. Canulas were fixed with dental cement. Implantation coordinates from Bregma (implantation 0.5 mm above injection site as the needle surpassed canula by 0.5 mm): ante-posterior −2.06 mm, lateral 2.5 mm, dorso-ventral −1.4 mm. Animals were allowed to recover for 3 days after surgery before drug treatments started.\n(§3) Animals were injected under Isofluorane anesthesia with 300 nl of either drug (treated) or vehicle (control) through a small needle guided through the implanted canulas every 3-4 days for 12-21 days (depending on experiment). Canula positions were confirmed in all analyzed sections to be above Ca3b-a without harming the mossy fiber projection or CA3 pyramidal cell dendrites.\nas §1\nIndividual LMT volumes contained in these cubes were measured using the Surpass/ Isosurface function of the software. Non-saturating imaging conditions were chosen for all size analyses. An intensity threshold of 300 was chosen to selectively analyze LMTs (excluding axons and other smaller objects). All identified objects were verified by eye inspection. Generally, the settings for the analysis were identical for all samples of all ages, but in some cases we verified the settings through internal calibration using the diameters and signal intensities of axons. After these measurements, LMTs were grouped according to their volumes. The volumes of all LMTs in one group were added up, and expressed as percentage of the total volume of all LMTs measured per cube. For the quantification of LMT sizes in 2D, MIPs of 3D stacks were created in ImageJ, and LMT surfaces (areas in μm^2) were measured. For all samples, LMTs were inspected by eye in 3D to be identified as individual LMTs and not fused with other LMTs. LMT numbers were determined in CA3b as follows: the sum of all mGFP-positive LMTs within a region of interest (ROI; a MIP) was divided by the number of mGFP-labeled axons within that ROI, and by the length along CA3 included in the ROI. LMT numbers were then normalized to 100 μm axon length. Wnt7a/b staining intensities were measured on single confocal planes. […]"}, "Wnt signaling [3]": {"tested_on": "Wnt signaling", "experiment": "sFRP-1 applied in Rab3a-/- mice housed under EE conditions", "format": "in vivo", "description": "Transgenic mice expressing membrane-targeted GFP in only a few neurons (Thy1-mGFPs, L21 and L15) were as described (De Paola et al., 2003). Transgenic males were crossed over more than ten generations with non-transgenic F1 offsprings from C57BI6×BalbC crosses, so that the genetic background of the mice was 50% each of C57BI6 and BalbC. Rab3a knockout mice (B6; 129S-Rab3a^tm1Sud/J) were obtained from the Jackson Laboratory and backcrossed into Thy1-mGFP (L21) mice.\nFor enriched environment (EE) experiments, male mice were housed in groups of 3-4 littermates in large (rat) cages equipped with 3 running wheels per cage, toys and hiding spaces. […]\nas §3\n(§4) Microscope images were processed and analysed using Metamorph 6.1, Imaris 4.2 (Bitplane AG) and ImageJ softwares. […] For the quantification of LMT sizes in 3D (volumes) at least three confocal 3D stacks were acquired in CA3b for each preparation (three mice per condition), and analyzed using Imaris 4.2 software. […]"}, "Wnt signaling [4]": {"tested_on": "Wnt signaling", "experiment": "sFRP-1 applied locally into hippocampal CA3 through a canule in mice housed under enriched environment (EE) conditions", "format": "in vivo", "conditions": "sFRP-1 present in CA3 during entire EE procedure, vs vehicle; no effect in dentate gyrus", "description": "as §2\nMature recombinant sFRP-1 was obtained from R&D systems and dissolved in PBS/0.1% BSA (vehicle: PBS/0.1% BSA) to a working concentration of 50 μg/ml. Wnt agonist (Calbiochem) was dissolved in a small volume of DMSO and then further diluted with PBS to a final concentration of 10 mM (DMSO<1:1000). […]\nas §3, §4"}, "[5]": {"conditions": "local into CA3, control housing"}},
  "data": [
    {"molecule": "COc1cccc(-c2cnc(N)nc2NCc2ccc3c(c2)OCO3)c1", "note": "[Wnt agonist, 2-amino-4-[3,4-(methylenedioxy)benzyl-amino]-5-(3-methoxyphenyl)pyrimidine, reference compound]", "values": [
      {"measurement": "LMT satellite numbers", "setting": "Wnt signaling [1]", "value": "increases"},
      {"measurement": "AZ densities at LMTs", "setting": "Wnt signaling [2]; [5]", "value": "increased"},
      {"measurement": "stratum lucidum AZ numbers", "setting": "Wnt signaling [2]; [5]", "value": "increased"},
      {"measurement": "stratum lucidum LMT numbers", "setting": "Wnt signaling [2]; [5]", "value": "increased"}
    ]},
    {"molecule": "B1", "values": [
      {"measurement": "effect of EE on LMT complexities", "setting": "Wnt signaling [3]", "value": "effectively suppressed the effect of EE"},
      {"measurement": "effect of EE on LMT numbers", "setting": "Wnt signaling [3]", "value": "effectively suppressed the effect of EE"},
      {"measurement": "contents of AZs per LMT", "setting": "Wnt signaling [2]; [5]", "value": "reduction"},
      {"measurement": "stratum lucidum AZ numbers", "setting": "Wnt signaling [2]; [5]", "value": "reduction"},
      {"measurement": "fractions of LMTs with satellites", "setting": "Wnt signaling [2]; local into CA3, control housing (not shown)", "value": "reduction"},
      {"measurement": "effect of the enriched housing conditions on AZ numbers", "setting": "Wnt signaling [4]", "value": "effectively suppresses the effect of the enriched housing conditions"},
      {"measurement": "effect of the enriched housing conditions on satellite numbers", "setting": "Wnt signaling [4]", "value": "effectively suppresses the effect of the enriched housing conditions"}
    ]}
  ]
}
